# Source: PMC5849677 (2018)
# B1: hCR2 (SCR1-4)-Fc (Fc fusion)
# chain: ISCGSPPPILNGRISYYSTPIAVGTVIRYSCSGTFRLIGEKSLLCITKDKVDGTWDKPAPKCEYFNKYSSCPEPIVPGGYKIRGSTPYRHGDSVTFACKTNFSMNGNKSVWCQANNMWGPTRLPTCVSVFPLECPALPMIHNGHHTSENVGSIAPGLSVTYSCESGYLLVGEKIINCLSSGKWSAVPPTCEEARCKSLGRFPNGKVKEPPILRVGVTANFFCDEGYRLQGPPSSRCVIAGQGVAWTKMPVCEE
# What was measured:
# Assay in all cases: SPR
# [1] = biological target: hC3d(s)-Fc (Cys to Ser variant of hC3d-Fc) (human, UniProt P01024 1001-1303)
# [2] = biological target: native hC3d (containing 9th cysteine)-Fc (human, UniProt P01024 1001-1303)
# hC3dg (aa 955-1303)-Fc = hC3dg (aa 955-1303)-Fc (human, UniProt P01024 955-1303)
# hC3dg (aa 955-1303)-Fc, sequence (P01024 955-1303): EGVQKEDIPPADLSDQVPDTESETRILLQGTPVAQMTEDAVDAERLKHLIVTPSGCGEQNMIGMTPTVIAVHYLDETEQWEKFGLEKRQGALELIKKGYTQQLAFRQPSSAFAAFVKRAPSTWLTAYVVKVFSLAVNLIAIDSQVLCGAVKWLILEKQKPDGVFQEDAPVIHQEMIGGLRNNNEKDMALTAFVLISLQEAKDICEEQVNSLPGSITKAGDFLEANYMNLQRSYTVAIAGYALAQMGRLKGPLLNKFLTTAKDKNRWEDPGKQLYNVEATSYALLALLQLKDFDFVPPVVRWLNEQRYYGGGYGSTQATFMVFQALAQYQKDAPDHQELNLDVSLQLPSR
# hC3d(s)-Fc (Cys to Ser variant of hC3d-Fc), sequence (P01024 other isoform, or with tags, fused parts or gaps mutant): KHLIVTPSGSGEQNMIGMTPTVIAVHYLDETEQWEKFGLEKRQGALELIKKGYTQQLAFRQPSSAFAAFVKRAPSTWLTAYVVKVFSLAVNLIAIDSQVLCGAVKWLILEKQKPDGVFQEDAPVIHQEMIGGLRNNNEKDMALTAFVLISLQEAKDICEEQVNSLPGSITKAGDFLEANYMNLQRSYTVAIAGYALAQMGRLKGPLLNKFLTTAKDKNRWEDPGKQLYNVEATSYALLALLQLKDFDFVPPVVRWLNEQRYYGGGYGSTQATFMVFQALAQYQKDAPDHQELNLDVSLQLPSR
# native hC3d (containing 9th cysteine)-Fc, sequence (P01024 1001-1303): as the sequence (P01024 other isoform, or with tags, fused parts or gaps mutant) above, with S10C counted along it
binder,measurement,setting,value
B1,Kd,[1],7.66 nM
same,Kd,[2],5.18 nM
same,Kd,hC3dg (aa 955-1303)-Fc,3.17 nM
